{"source": "paper PMC10605901", "about": "“Clinical Cases and the Molecular Profiling of a Novel Childhood Encephalopathy-Causing GNAO1 Mutation P170R” (Cells, 2023)", "binders": {"B1": {"name": "3xHA-RGS19 (natural protein, UniProt P49795 1-217, looked up)", "chain": "MPTPHEAEKQITGPEEADRPPSMSSHDTASPAAPSRNPCCLCWCCCCSCSWNQERRRAWQASRESKLQPLPSCEVCATPSPEEVQSWAQSFDKLMHSPAGRSVFRAFLRTEYSEENMLFWLACEELKAEANQHVVDEKARLIYEDYVSILSPKEVSLDSRVREGINKKMQEPSAHTFDDAQLQIYTLMHRDSYPRFLSSPTYRALLLQGPSQSSSEA", "notes": "RGS19 (regulator of G-protein signaling 19); also called 3×HA-RGS19; RGS19 (tagged with 3 × HA); source: N2a cells, transfected, in lysate"}}, "target": "T1, Gαo[P170R]^Gly92-GFP (human, UniProt P09471-1 1-354, P170R)", "T1 construct": "Pathogenic de novo variant found in two patients; also called Gαo[P170R]-GFP; P170R mutant; source: N2a cells, transfected, in lysate; not shown: GFP, internal (after residue 92), kept", "T1 sequence (P09471 whole entry P170R)": "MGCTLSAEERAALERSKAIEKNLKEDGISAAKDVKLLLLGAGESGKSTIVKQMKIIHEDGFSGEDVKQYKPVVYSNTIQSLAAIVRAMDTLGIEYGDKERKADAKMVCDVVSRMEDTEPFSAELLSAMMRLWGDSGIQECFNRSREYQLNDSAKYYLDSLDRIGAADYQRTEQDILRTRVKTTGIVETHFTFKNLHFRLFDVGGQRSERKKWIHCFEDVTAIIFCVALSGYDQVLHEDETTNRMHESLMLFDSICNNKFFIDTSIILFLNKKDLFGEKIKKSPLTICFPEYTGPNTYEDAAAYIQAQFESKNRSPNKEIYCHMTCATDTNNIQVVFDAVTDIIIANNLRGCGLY", "test": "co-IP; N2a cells co-transfected with Gαo-GFP constructs and mRFP-Gβ1/mRFP-Gγ3 (1:1:1) or HA-RGS19 (1:1); cleared lysates (20 mM Tris-HCl pH 8.0, 1% Triton X-100, 10% glycerol in PBS) incubated with GST-tagged anti-GFP nanobody, then Glutathione Sepharose 4B beads overnight at 4 °C; Western blot for GFP, mRFP and/or HA; quantification normalized to the precipitated Gαo-GFP", "conditions": "partners not purified"}
{"binder": "B1", "values": [{"measurement": "fold reduction of co-precipitated RGS19 against wild-type Gαo-GFP", "value": "> 2", "unit": "fold"}]}
